Test results: publication PMC9158119 (Frontiers in Immunology, 2022)

B1: Nb-001 (VHH)
VHH: EVQLVESGGGLVQAGGSLRLSCAASGSIFRLYTIDWYRQAPGKQRELVATISGTSPTNYADSVKGRATISRDNAKNTVYLQINSLKPEDTAVYYCHTVSGNTWGQGTQVTVSS
B2: Nb-002 (VHH)
VHH: EVQLVESGGALVQPGGSLRLSCAASGFTLDAAAIGWFRQAPGKEREWVSCINRVGGGFYSDSAKGRFTISRDNDKNTVYLQMNSLKFEDTAVYYCAADSDSPRFGCSDSRARYEYWGQGTQVTASS
B3: Nb-003 (VHH)
VHH: EVQVVESGGGLVQAGGSLRVSCAASGSTSSRYIMAWYRQAPGKQRELVASITLVGATIYKDSVKGRFTISGDNAKKTVYLQMNNLKPEDTAVYYCNQIDPLIGGPGYWGQGIQVTVSS
B4: Nb-004 (VHH)
VHH: QLQLVESGGGLVQAGGSLGLSCAASGITLGDYRMGWYRQAPGKQRELVARFTNAGAILYGDSVKGRFTISMNNAKNTVYLQINSLKPEDTAVYYCNARTTRGIDNWGQGTQVTVSS
B5: Nb-005 (VHH)
VHH: EVQLVESGGGLVQAGGSLRLSCAASGSAFNDYAMGWYRQAPGKQRELVARFTNVGATLSSNSVKGRFTISRDNAKNTVFLQMNSLKPEDTAVYYCHAGHRILLGREYWGQGTQVTVSS
B6: Nb-006 (VHH)
VHH: QVQLVESGGGLVQAGESLRLSCAASGSTVSPYTMGWYRQAPGKQREWVATIRSDRSTNYADSVLGRFTISRDNAKNTVYLQMNSLKPEDTAVYQCYALQGGLLLGQGTQVTVSS
B7: Nb-008 (VHH)
VHH: EVQVVESGGGLVQAGGSLRLSCAASGSTSNLRVTGWYRQTPGKQRELVAAISNAGATVYPDSVAGRFTLSRDNAKNTVTLQINSLKPEDTAVYYCNARRFGRDYWGQGTQVTVSS
B8: Nb-010 (VHH)
VHH: EVQVVESGGGLVQAGGSLRLSCTASGSTFTRYPMGWYRQAPGKQRELVAGFTVVGATIYADSVKGRFALSRDNAKKTIDLQLDSLKPDDTGVYYCSMYTYWGQGTQVTVSS
B9: Nb-007 (VHH)
VHH: QLQLVESGGGLVQAGGSMRLSCAASISFSSFPMGWHRQAPGKQRELVAKTGIGGTAYDDSVKGRFTISRDNTKNTVYLQMNSLKVEDTAVYYCWGWRMNDYWGQGTQVTVSS

Experiments:
[1] = target: T1, SARS-CoV-2 original strain spike receptor-binding domain (S-RBD) (SARS-CoV-2, UniProt P0DTC2)
[2] = target: T1, SARS-CoV-2 original strain spike …; assay: SPR; conditions: both partners purified

| Binder | binding result [1] | Kd [2] [nM] |
| --- | --- | --- |
| B1 | binds | – |
| B2 | binds | – |
| B3 | binds | – |
| B4 | binds | – |
| B5 | binds | – |
| B6 | binds | – |
| B7 | binds | – |
| B8 | binds | – |
| B9 | – | 0.0674 |
